PMC6180126, “A guanine-flipping and sequestration mechanism for G-quadruplex unwinding by RecQ helicases”

Columns and labels:
[1] = target: T1, CsRecQ catalytic core S245A (Cronobacter sakazakii, UniProt A7MQK9 1-521, S245A); test: X-ray crystallography; discontinuous density in helicase/winged-helix cleft; 20 mM Tris-HCl pH 8.0, 100 mM NaCl, 1 mM MgCl2, 1 mM 2-mercaptoethanol, 0.1 mg/mL BSA, 4% glycerol; 5 nM DNA, 30 min at room temperature, read at 25 C (G4 folded in 10 mM Tris-HCl pH 8.0, 100 mM KCl); conditions: protein: recombinant; tags: N-terminal His tag removed (thrombin); antiparallel G4 with 12 nt 3' ssDNA tail; resolved (unwound) in 6CRM
[2] = target: T1, CsRecQ catalytic core S245A; test: fluorescence anisotropy; 1 mM Mg2+; Kd not determined (anisotropy decreased with time); 20 mM Tris-HCl pH 8.0, 100 mM NaCl, 1 mM MgCl2, 1 mM 2-mercaptoethanol, 0.1 mg/mL BSA, 4% glycerol; 5 nM DNA, 30 min at room temperature, read at 25 C (G4 folded in 10 mM Tris-HCl pH 8.0, 100 mM KCl); conditions: protein: recombinant; tags: N-terminal His tag removed (thrombin); label: 3' FAM; intramolecular G4 (folded in 100 mM KCl) with 12 nt 3' ssDNA tail
[3] = target: T2, EcRecQ catalytic core S245A (Escherichia coli, UniProt P15043 1-523, S245A); test: as above; conditions: protein: recombinant; tags: N-terminal His tag removed (thrombin); label: 3' FAM; intramolecular G4 (folded in 100 mM KCl) with 12 nt 3' ssDNA tail
CsRecQ catalytic core = CsRecQ catalytic core (Cronobacter sakazakii, UniProt A7MQK9 1-521); test: fluorescence anisotropy; apparent Kd; 1 mM Mg2+; 20 mM Tris-HCl pH 8.0, 100 mM NaCl, 1 mM MgCl2, 1 mM 2-mercaptoethanol, 0.1 mg/mL BSA, 4% glycerol; 5 nM DNA, 30 min at room temperature, read at 25 C (G4 folded in 10 mM Tris-HCl pH 8.0, 100 mM KCl); conditions: protein: recombinant, tags: N-terminal His tag removed (thrombin)
[4] = target: EcRecQ catalytic core D312A (Escherichia coli, UniProt P15043 1-523, D312A); test: as above; conditions: protein: recombinant, tags: N-terminal His tag removed (thrombin)
EcRecQ catalytic core = EcRecQ catalytic core (Escherichia coli, UniProt P15043 1-523); test: as above; conditions: protein: recombinant, tags: N-terminal His tag removed (thrombin)
[5] = target: T1, CsRecQ catalytic core S245A; test: as above; conditions: protein: recombinant; tags: N-terminal His tag removed (thrombin); label: 3' FAM on Duplex 1; 18 bp, 3' overhang 12 nt on strand 1
[6] = target: T2, EcRecQ catalytic core S245A; test: as above; conditions: protein: recombinant; tags: N-terminal His tag removed (thrombin); label: 3' FAM on Duplex 1; 18 bp, 3' overhang 12 nt on strand 1
[7] = label: 3' FAM, intramolecular G4 (folded in 100 mM KCl) with 12 nt 3' ssDNA tail
[8] = label: 3' FAM on Duplex 1, 18 bp, 3' overhang 12 nt on strand 1

## TTAGGGTTAGGGTTAGGGTTAGGGTCGGTGCCTTACT (structured_DNA) [G4 DNA]
[1]
  binding result: binds

## TTAGGGTTAGGGTTAGGGTTAGGGTCGGTGCCTTACT (structured_DNA) [F-G4]
[2]
  binding result: binds
[3]
  binding result: binds
CsRecQ catalytic core; [7]
  Kd: 4700 ± 900 nM
[4]; [7]
  Kd: 330 ± 40 nM
EcRecQ catalytic core; [7]
  Kd: 1000 ± 100 nM

B1: Duplex 1/Duplex 2 (dsDNA)
DNA 1: GCGTGGGTAATTGTGCTTCAATGGACTGAC
DNA 2: AAGCACAATTACCCACGC
CsRecQ catalytic core; [8]
  Kd: 2900 ± 300 nM
[4]; [8]
  Kd: 280 ± 20 nM
[5]
  Kd: 4000 ± 1600 nM
[6]
  Kd: 2200 ± 200 nM
EcRecQ catalytic core; [8]
  Kd: 950 ± 60 nM
